Measured values taken from the supplement of paper PMC7877785.
± gives the uncertainty stated by the source.

Experiment: self-splicing fitness, log relative to wild type (ln ratio); higher = more splicing; Tetrahymena group I intron in knt gene, E. coli kanamycin selection, DiMSum; sequences stand for … in CUCUCU…GGAGGGAAAAGUUAUCAGGCAUGCACCUGGUAGCUAGUCUUUAAACCAAUAGAUUGCAUCGGUUUAAAAGGCAAGACCGUCAAAUUGCGGGAAAGGGGUCAACAGCCGUUCAGUACCAAGUCUCAGGGGAAACUUUGAGAUGGCCUUGCAAAGGGUAUGGUAAUAAGCUGACGGACAUGGUCCUAACCACGCAGCCAAGUCCUAAGUCAACAGAUCUUCUGUUGAUAUGGAUGCAGUUCACAGACUAAAUGUCGGUCGGGGAAGAUGUAUUCUUCUCAUAAGAUAUAGUCGGACCUCUCCUUAAUGGGAGCUAGCGGAUGAAGUGAUGCAACACUGGAGCCGCUGGGAACUAAUUUGUAUGCGAAAGUAUAUUGAUUAGUUUUGGAGUACUCGUGGUCG
Method in brief: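 Library with all eight P1ex-region intron nucleotides randomised, intron inside the knt kanamycin-resistance gene on pET-22b(+), in E. coli BL21(DE3). Cells grew overnight at 37°C or 30°C on LB agar with or without 25 μg/mL kanamycin (plus 100 μg/mL carbenicillin, 50 μM IPTG, 0.2% rhamnose), in six replicate transformations. Pooled colonies were amplicon-sequenced on Illumina HiSeq 2500. DiMSum fitness is the error-weighted combination of wild-type-normalised replicate fold changes, kanamycin versus none.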

Row | Sequence | self-splicing fitness (ln) (30 °C) | self-splicing fitness (ln) (37 °C)
1 | CAAAAGCAAUAUUACGGUCU | -3.38 ± 0.13 | -1.1 ± 0.086
2 | CAAAAGCAAUAUUACGGUGA | -1.57 ± 0.096 | -1.62 ± 0.1
3 | CAAAAGCAAUAUUACGUAGA | -1.88 ± 0.078 | -1.97 ± 0.12
4 | CAAAAGCAAUAUUACGUCCU | -2.18 ± 0.087 | -0.725 ± 0.09
5 | CAAAAGCAAUAUUACGUCUA | -1.75 ± 0.097 | -0.725 ± 0.083
6 | CAAAAGCAAUAUUACGUCUC | -3.38 ± 0.23 | -2.15 ± 0.2
7 | CAAAAGCAAUAUUACGUGUC | -3.51 ± 0.14 | -1.41 ± 0.12
8 | CAACAGCAAUAUUACGAGAA | -2.7 ± 0.39 | -0.546 ± 0.21
9 | CAACAGCAAUAUUACGAUGU | -2.57 ± 0.11 | -1.62 ± 0.11
10 | CAACAGCAAUAUUACGCAAG | -1.48 ± 0.07 | -0.352 ± 0.085
11 | CAACAGCAAUAUUACGCCCC | – | -0.283 ± 0.4
12 | CAACAGCAAUAUUACGCGCC | -1.54 ± 0.073 | -1.43 ± 0.11
13 | CAACAGCAAUAUUACGCUAC | -4.32 ± 0.24 | -2.3 ± 0.15
14 | CAACAGCAAUAUUACGCUAU | -3.29 ± 0.17 | -2.25 ± 0.13
15 | CAACAGCAAUAUUACGGUCC | -2.56 ± 0.17 | -1.22 ± 0.16
16 | CAACAGCAAUAUUACGUACC | -2.7 ± 0.12 | -0.824 ± 0.12
17 | CAACAGCAAUAUUACGUAUC | -1.96 ± 0.16 | -2.75 ± 0.18
18 | CAACAGCAAUAUUACGUGCG | -0.886 ± 0.053 | -0.129 ± 0.074
19 | CAACAGCAAUAUUACGUGUU | -3.54 ± 0.11 | -3.03 ± 0.15
20 | CAAGAGCAAUAUUACGAAUG | -2.34 ± 0.09 | -1.79 ± 0.14
21 | CAAGAGCAAUAUUACGACAA | -0.348 ± 0.28 | -1.43 ± 0.39
22 | CAAGAGCAAUAUUACGAGCG | -0.536 ± 0.07 | -0.728 ± 0.073
23 | CAAGAGCAAUAUUACGAGCU | -2.04 ± 0.28 | -2.06 ± 0.37
24 | CAAGAGCAAUAUUACGAGUC | -2.88 ± 0.28 | -0.209 ± 0.28
25 | CAAGAGCAAUAUUACGCCAA | -3.78 ± 0.4 | -2.68 ± 0.3

Row | Sequence | self-splicing fitness (ln) (30 °C) | self-splicing fitness (ln) (37 °C)
26 | CAAGAGCAAUAUUACGCCGC | -2.67 ± 0.25 | -1.99 ± 0.26
27 | CAAGAGCAAUAUUACGCCGG | -2 ± 0.15 | -1.35 ± 0.24
28 | CAAGAGCAAUAUUACGCCUC | -1.95 ± 0.33 | –
29 | CAAGAGCAAUAUUACGCGAG | -2.92 ± 0.2 | -2.11 ± 0.21
30 | CAAGAGCAAUAUUACGCUCC | -2.23 ± 0.44 | –
31 | CAAGAGCAAUAUUACGCUUA | -2.23 ± 0.17 | -0.92 ± 0.15
32 | CAAGAGCAAUAUUACGGAGG | -1.85 ± 0.083 | -1.3 ± 0.13
33 | CAAGAGCAAUAUUACGGGCC | – | -2.71 ± 0.31
34 | CAAGAGCAAUAUUACGGGCU | – | -2.6 ± 0.34
35 | CAAGAGCAAUAUUACGGUUA | -2.21 ± 0.15 | -2.08 ± 0.18
36 | CAAGAGCAAUAUUACGGUUG | -2.72 ± 0.12 | -2.25 ± 0.18
37 | CAAGAGCAAUAUUACGUACA | -3.1 ± 0.35 | -1.89 ± 0.26
38 | CAAGAGCAAUAUUACGUGUA | -3.48 ± 0.17 | -2.42 ± 0.17
39 | CAAUAGCAAUAUUACGAAUU | -3.51 ± 0.26 | -2.23 ± 0.18
40 | CAAUAGCAAUAUUACGACCA | – | -1.81 ± 0.41
41 | CAAUAGCAAUAUUACGACCG | -0.173 ± 0.12 | 0.201 ± 0.18
42 | CAAUAGCAAUAUUACGACGG | -0.109 ± 0.076 | 0.524 ± 0.1
43 | CAAUAGCAAUAUUACGACUU | -3.35 ± 0.24 | -0.264 ± 0.23
44 | CAAUAGCAAUAUUACGAGAA | -3.83 ± 0.39 | -2.71 ± 0.3
45 | CAAUAGCAAUAUUACGAGGA | -2.82 ± 0.26 | -2.07 ± 0.27
46 | CAAUAGCAAUAUUACGAUAC | -3.17 ± 0.19 | -2.41 ± 0.16
47 | CAAUAGCAAUAUUACGAUCG | 0.123 ± 0.069 | -0.0654 ± 0.083
48 | CAAUAGCAAUAUUACGAUUC | -3.4 ± 0.14 | -1.24 ± 0.14
49 | CAAUAGCAAUAUUACGCAUC | – | -2.7 ± 0.35
50 | CAAUAGCAAUAUUACGCCGC | -2.12 ± 0.22 | -2.72 ± 0.4

Row | Sequence | self-splicing fitness (ln) (30 °C) | self-splicing fitness (ln) (37 °C)
51 | CAAUAGCAAUAUUACGCCGU | -3.47 ± 0.15 | -1.4 ± 0.14
52 | CAAUAGCAAUAUUACGCCUA | -2.01 ± 0.22 | -1.74 ± 0.18
53 | CAAUAGCAAUAUUACGCCUC | -3.74 ± 0.48 | -2.17 ± 0.36
54 | CAAUAGCAAUAUUACGCGAA | -3.11 ± 0.21 | -1.67 ± 0.15
55 | CAAUAGCAAUAUUACGCUGC | -3.49 ± 0.28 | -1.92 ± 0.33
56 | CAAUAGCAAUAUUACGCUGU | -3.13 ± 0.17 | -2.07 ± 0.15
57 | CAAUAGCAAUAUUACGCUUG | -2.63 ± 0.14 | -2.01 ± 0.16
58 | CAAUAGCAAUAUUACGGAAU | -3.67 ± 0.35 | -3.11 ± 0.33
59 | CAAUAGCAAUAUUACGGGUG | -0.693 ± 0.068 | 0.0252 ± 0.091
60 | CAAUAGCAAUAUUACGGUCA | -3.09 ± 0.18 | -1.55 ± 0.12
61 | CAAUAGCAAUAUUACGUAAG | 0.0257 ± 0.049 | 0.121 ± 0.062
62 | CAAUAGCAAUAUUACGUCCG | -0.215 ± 0.1 | -0.267 ± 0.13
63 | CAAUAGCAAUAUUACGUUGA | -2.59 ± 0.15 | -3.59 ± 0.22
64 | CAAUAGCAAUAUUACGUUGC | -4.82 ± 0.42 | -3.05 ± 0.26
65 | CACAAGCAAUAUUACGAAAA | -3.15 ± 0.17 | -2.57 ± 0.24
66 | CACAAGCAAUAUUACGACAG | 0.0654 ± 0.065 | 0.61 ± 0.083
67 | CACAAGCAAUAUUACGAGAU | -3.28 ± 0.1 | -2.74 ± 0.12
68 | CACAAGCAAUAUUACGAGCC | -4.37 ± 0.42 | -2.17 ± 0.4
69 | CACAAGCAAUAUUACGAGUC | -3.71 ± 0.17 | -2.26 ± 0.16
70 | CACAAGCAAUAUUACGAUGU | -3.96 ± 0.16 | -1.99 ± 0.1
71 | CACAAGCAAUAUUACGAUUA | -2.43 ± 0.13 | -0.984 ± 0.12
72 | CACAAGCAAUAUUACGCAGA | -2.72 ± 0.2 | -1.43 ± 0.16
73 | CACAAGCAAUAUUACGCAUA | -3.87 ± 0.19 | -1.12 ± 0.11
74 | CACAAGCAAUAUUACGCCAU | -4 ± 0.23 | -3.48 ± 0.25
75 | CACAAGCAAUAUUACGCCGA | -3.39 ± 0.26 | -0.917 ± 0.15

Row | Sequence | self-splicing fitness (ln) (30 °C) | self-splicing fitness (ln) (37 °C)
76 | CACAAGCAAUAUUACGCGCU | -4.44 ± 0.27 | -2.33 ± 0.18
77 | CACAAGCAAUAUUACGCUCG | -0.562 ± 0.089 | -0.27 ± 0.092
78 | CACAAGCAAUAUUACGCUUU | -4.46 ± 0.24 | -2.81 ± 0.17
79 | CACAAGCAAUAUUACGGAAA | -3.04 ± 0.19 | -2.99 ± 0.2
80 | CACAAGCAAUAUUACGGAGG | -2.14 ± 0.089 | -0.826 ± 0.1
81 | CACAAGCAAUAUUACGGCUC | -2.56 ± 0.18 | -1.75 ± 0.16
82 | CACAAGCAAUAUUACGGGGU | -3.61 ± 0.11 | -3.18 ± 0.13
83 | CACAAGCAAUAUUACGGUAG | -0.991 ± 0.043 | -0.207 ± 0.059
84 | CACAAGCAAUAUUACGGUCA | -2.04 ± 0.1 | -0.612 ± 0.1
85 | CACAAGCAAUAUUACGGUGA | -3.09 ± 0.12 | -0.931 ± 0.085
86 | CACAAGCAAUAUUACGGUGU | -3.86 ± 0.14 | -2.07 ± 0.14
87 | CACAAGCAAUAUUACGUAAA | -3.74 ± 0.21 | -2.39 ± 0.23
88 | CACAAGCAAUAUUACGUCAG | -1.25 ± 0.051 | -0.508 ± 0.064
89 | CACAAGCAAUAUUACGUGCA | -2.56 ± 0.11 | -1.55 ± 0.093
90 | CACAAGCAAUAUUACGUGCU | -3.93 ± 0.18 | -2.79 ± 0.15
91 | CACAAGCAAUAUUACGUGGC | -3.15 ± 0.21 | -2.64 ± 0.27
92 | CACAAGCAAUAUUACGUUAA | -4.3 ± 0.27 | -2.28 ± 0.13
93 | CACAAGCAAUAUUACGUUCA | -1.31 ± 0.084 | -1.49 ± 0.089
94 | CACAAGCAAUAUUACGUUCC | -3.75 ± 0.19 | -2.42 ± 0.23
95 | CACCAGCAAUAUUACGAAUG | -0.784 ± 0.039 | 0.236 ± 0.058
96 | CACCAGCAAUAUUACGACAC | -3.07 ± 0.27 | -1.36 ± 0.22
97 | CACCAGCAAUAUUACGACCG | -0.000395 ± 0.066 | 0.12 ± 0.089
